Bounds are passed on as bounds.

This note sets out measurements from paper PMC5222517.

The target of test [1] is HIV-1 Env (HXB2 strain) homotrimer with N656D in gp41 (HIV-1 (HXB2 strain)).
Test [2] addresses HIV-1 Env (HXB2 strain) homotrimer with Q552R/N637K in gp41 (HIV-1 (HXB2 strain)).
Test [3] deals with HIV-1 Env (HXB2 strain) homotrimer with L544S in gp41 (HIV-1 (HXB2 strain)).
Test [4] deals with HIV-1 Env (HXB2 strain) homotrimer with V549A in gp41 (HIV-1 (HXB2 strain)).

As to “5-Helix, mutant version with L556A/V570A in all three N-HR segments (from UniProt P04578 543-582; P04578 625-661; P04578 543-582; P04578 625-661; P04578 543-582) (designed binder)”, the fold resistance to 5H (LAVA) in inhibition of infection by pseudotyped HIV-1, N656D against wild type Env (HXB2) homotrimers in test [1] is above 100 fold.
As to “C-peptide C37-KYI (from UniProt P04578 625-661)”, in test [2], the IC50.1 (high potency phase, fraction f = 0.31) of C37-KYI inhibition of infection by pseudotyped HIV-1, two-site inhibition model (HOS-CXCR4+ cells) was found to be 8 nM and the IC50.2 (low potency phase, fraction 1 - f) of C37-KYI inhibition of infection by pseudotyped HIV-1, two-site inhibition model (HOS-CXCR4+ cells) was found to be 180 nM.
C-peptide T20 gave a fold resistance to T20 in inhibition of infection by pseudotyped HIV-1, L544S against wild type Env (HXB2) homotrimers (U87.CD4.CXCR4 cells) in test [3] of 30 fold. Further, the fold resistance to T20 in inhibition of infection by pseudotyped HIV-1, V549A against wild type Env (HXB2) homotrimers (U87.CD4.CXCR4 cells) in test [4] was determined as 50 fold.
